Test results: patent publication US20040109861A1 (MYRIAD GENETICS, published 2004)

Target: T1, myc-tagged Tsg101 (residues 1-207) (human, UniProt Q99816 1-207)
T1 construct: range 1-207; Used as Drosophila S2 cell lysate, not purified; The tag is placed N-terminal from the name myc-Tsg101; also called myc-Tsg101(1-207); myc-Tsg101 (1-207)
T1 sequence: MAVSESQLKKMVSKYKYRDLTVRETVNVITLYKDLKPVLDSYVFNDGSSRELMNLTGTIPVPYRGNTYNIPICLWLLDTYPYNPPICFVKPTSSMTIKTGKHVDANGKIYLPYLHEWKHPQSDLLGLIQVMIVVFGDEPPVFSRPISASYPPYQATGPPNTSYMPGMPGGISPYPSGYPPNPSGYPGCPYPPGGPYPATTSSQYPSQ
Assay: plate competition assay, competitor of coated GST-p6 for myc-Tsg101(1-207)

B1: p6(1-14) peptide (GAGp6 peptide containing the first 14 amino acid residues) (peptide)
peptide: LQSRPEPTAPPEES
notes: also called first 14 amino acid residues of HIV GAGp6
**Q.** Does B1 bind?
**A.** Result: binds
